Source: patent US9624506B2, “Glyphosate resistance enhancement” (Keygene N.V., priority 2011, dated 2017)
Entries after “also recorded” stand apart in the source; their conditions may differ.

Experiments:
Arabidopsis thaliana = assay: Glyphosate tolerance of transgenic Arabidopsis lines (average seedling weight +Gly/-Gly); type: in vivo; conditions: transgenic Arabidopsis lines overexpressing EPSPS gene; MS20 medium, 400 μM glyphosate, 4 weeks
Experimental: The mutated Arabidopsis EPSPS genes tested in E. coli (see Example 1) were cloned into the binary vector pEARLEYGATE100 (The Plant J. 2006; 45:616-629). Briefly, the EPSPS genes were isolated as BamHI and SacI fragments comprising the complete ORF's and then inserted into the same unique sites present in the binary vector. […] This series of binary vectors were electroporated to the Agrobacterium tumefaciens strain GV2260 and bacterial colonies were selected on LB medium containing 100 μg/ml spectinomycin, using methods known to the skilled person.
Seeds of Arabidopsis thaliana (ecotype Colombia) were sown on soil and once germinated a single seedling was placed in a 5 cm×5 cm pot and allowed to grow until the first influorescence appeared. At this stage the plants were then transformed using the floral dip method. Briefly, the Agrobacterium strains were grown overnight in 50 ml liquid LB medium containing 100 μg/ml spectinomycin at 28° C. and then this culture was centrifuged at 4000 rpm for 10 minutes. The pellets were then resuspended in a 5% sucrose solution containing 0.02% Silwet (Lehle Seeds). The Arabidopsis plants were dipped into this culture and then incubated overnight in the dark at 25° C. The plants were then allowed to grow further in the greenhouse and after 7 days the dipping procedure was repeated. The plants were then allowed to set seed which was then germinated on soil. For selection of transformed Arabidopsis seedlings, a solution of glufosinate was prepared (0.1 mg/ml glufosinate ammonium+0.005% silwet) and sprayed on the seedlings. After 7 days the surviving seedlings were identified, grown to maturity and the seeds were collected.
We performed a segregation analysis on the seed of the transgenic lines to estimate the T-DNA copy number. Seed from each of the transgenic lines was sterilized with a 2% hypochlorite solution and washed with sterile water. Approximately 100 seeds per line were then placed on MS20 medium containing 0.1 mg/ml glufosinate ammonium and the number of surviving seedlings was scored after 20 days. The lines with a single T-DNA copy that segregated […] (resistance:sensitivity) to the glufosinate were selected for further phenotyping.
Seeds from the transgenic Arabidopsis lines were sterilized and then placed on MS20 medium containing 0.1 mg/ml glufosinate ammonium and +/−400 μM glyphosate and were grown for 4 weeks. After this period the seedlings were removed from the growth plates and the average seedling weight was determined. The degree of glyphosate resistance for each line was determined by dividing the average seedling weight in the presence of glyphosate by the average seedling weight found in the absence of glyphosate.

E. coli = assay: Complementation assay in E. coli using A. thaliana EPSPS variants, growth in M9 medium with glyphosate; type: cell-based; conditions: 30 mM glyphosate; for glyphosate resistance (bacterial growth, OD600 over time): E. coli BL21 expressing A. thaliana EPSPS variant, M9 medium, 1 mM IPTG, 25° C.
Source text: Each of these EPSPS variants was then cloned as a 1576 bps EcoRI-BamHI fragment into the vector pET302 NT HIS (Invitrogen, product K630203), fusing the EPSPS variants to a 6× His tag and allowing inducible protein expression with IPTG in E. coli. These constructs were introduced into the E. coli expression strain BL21 OAS (Invitrogen) for complementation assays.
E. coli is unable to grow in minimal M9 growth medium supplemented with glyphosate due to inhibition of the activity of the endogenous bacterial EPSP synthase AroA. Bacterial growth can be restored by complementation with a glyphosate resistant plant EPSPS gene. The E. coli strains containing the A. thaliana EPSPS variants were grown overnight in 10 ml LB medium containing 100 μg/ml carbenicillin (Duchefa). Strains were then diluted 4 fold in the same medium and allowed to grow for a further 4 hours. The […] of each culture was then measured and 1.5 ml culture was centrifuged at 4000 rpm for 10 minutes. The bacterial pellet was resuspended in 500 μl M9 medium (12.8 g/l Na2HPO4, 3.0 g/l KH2PO4, 0.5 g/l NaCl, 1.0 g/l NH4Cl, 2.0 g/l glucose, 0.4940 g/l MgSO4.7H2O, 15 mg/l CaCl2.2H2O, thiamine and 10 mg/l FeSO4.7H2O) used to inoculate 10 ml M9 medium containing 1 mM IPTG and 100 μg/ml carbenicillin and 30 mM glyphosate to an OD600 of 0.1. Identical cultures for each strain were also made lacking glyphosate and these were used to assess the growth of each strain without selection. The cultures were then grown at 25° C. and the OD600 was measured over time to assess bacterial growth (see FIG. 2).

[1] = E. coli EPSPS, Eschenburg et al. 2002; cited from earlier work

Molecule	glyphosate resistance (ratio of average seedling weight +Gly/-Gly) (Arabidopsis thaliana)	glyphosate resistance (bacterial growth, OD600 over time) (E. coli)	enhancement of resistance levels (E. coli; N44D combined with P106L, after 18 hours of growth)	Km of PEP [1]
P106L: A. thaliana EPSPS with Proline at position 106 changed into Leucine (SEQ ID NO:12) (protein, listed as Arabidopsis thaliana) MAQVSRICNGVQNPSLISNLSKSSQRKSPLSVSLKTQQHPRAYPISSSWGLKKSGMTLIGSELRPLKVMSSVSTAEKASEIVLQPIREISGLIKLPGSKSLSNRILLLAALSEGTTVVDNLLNSDDINYMLDALKRLGLNVETDSENNRAVVEGCGGIFPASIDSKSDIELYLGNAGTAMRLLTAAVTAAGGNASYVLDGVPRMRERPIGDLVVGLKQLGADVECTLGTNCPPVRVNANGGLPGGKVKLSGSISSQYLTALLMSAPLALGDVEIEIVDKLISVPYVEMTLKLMERFGVSVEHSDSWDRFFVKGGQKYKSPGNAYVEGDASSASYFLAGAAITGETVTVEGCGTTSLQGDVKFAEVLEKMGCKVSWTENSVTVTGPPRDAFGMRHLRAIDVNMNKMPDVAMTLAVVALFADGPTTIRDVASWRVKETERMIAICTELRKLGATVEEGSDYCVITPPKKVKTAEIDTYDDHRMAMAFSLAACADVPITINDPGCTRKTFPDYFQVLERITKH	reasonable resistance	good level of resistance	–	–
N44D+S179N: A. thaliana EPSPS double mutant N44D and S179N (SEQ ID NO:16) (protein, listed as Arabidopsis thaliana) MAQVSRICNGVQNPSLISNLSKSSQRKSPLSVSLKTQQHPRAYPISSSWGLKKSGMTLIGSELRPLKVMSSVSTAEKASEIVLQPIREISGLIKLPGSKSLSNRILLLAALSEGTTVVDDLLNSDDINYMLDALKRLGLNVETDSENNRAVVEGCGGIFPASIDSKSDIELYLGNAGTAMRPLTAAVTAAGGNASYVLDGVPRMRERPIGDLVVGLKQLGADVECTLGTNCPPVRVNANGGLPGGKVKLSGSISNQYLTALLMSAPLALGDVEIEIVDKLISVPYVEMTLKLMERFGVSVEHSDSWDRFFVKGGQKYKSPGNAYVEGDASSASYFLAGAAITGETVTVEGCGTTSLQGDVKFAEVLEKMGCKVSWTENSVTVTGPPRDAFGMRHLRAIDVNMNKMPDVAMTLAVVALFADGPTTIRDVASWRVKETERMIAICTELRKLGATVEEGSDYCVITPPKKVKTAEIDTYDDHRMAMAFSLAACADVPITINDPGCTRKTFPDYFQVLERITKH	confers resistance	–	–	–
N44D+P106L: A. thaliana EPSPS double mutant N44D and P106L (SEQ ID NO:13) (protein, listed as Arabidopsis thaliana) MAQVSRICNGVQNPSLISNLSKSSQRKSPLSVSLKTQQHPRAYPISSSWGLKKSGMTLIGSELRPLKVMSSVSTAEKASEIVLQPIREISGLIKLPGSKSLSNRILLLAALSEGTTVVDDLLNSDDINYMLDALKRLGLNVETDSENNRAVVEGCGGIFPASIDSKSDIELYLGNAGTAMRLLTAAVTAAGGNASYVLDGVPRMRERPIGDLVVGLKQLGADVECTLGTNCPPVRVNANGGLPGGKVKLSGSISSQYLTALLMSAPLALGDVEIEIVDKLISVPYVEMTLKLMERFGVSVEHSDSWDRFFVKGGQKYKSPGNAYVEGDASSASYFLAGAAITGETVTVEGCGTTSLQGDVKFAEVLEKMGCKVSWTENSVTVTGPPRDAFGMRHLRAIDVNMNKMPDVAMTLAVVALFADGPTTIRDVASWRVKETERMIAICTELRKLGATVEEGSDYCVITPPKKVKTAEIDTYDDHRMAMAFSLAACADVPITINDPGCTRKTFPDYFQVLERITKH	enhanced	strongly enhanced	2.5 fold	–
G101A: EPSPS with Glycine at position 101 changed into Alanine (position 96 in E. coli; SEQ ID NO:17) (protein, listed as Arabidopsis thaliana) MAQVSRICNGVQNPSLISNLSKSSQRKSPLSVSLKTQQHPRAYPISSSWGLKKSGMTLIGSELRPLKVMSSVSTAEKASEIVLQPIREISGLIKLPGSKSLSNRILLLAALSEGTTVVDNLLNSDDINYMLDALKRLGLNVETDSENNRAVVEGCGGIFPASIDSKSDIELYLGNAATAMRPLTAAVTAAGGNASYVLDGVPRMRERPIGDLVVGLKQLGADVECTLGTNCPPVRVNANGGLPGGKVKLSGSISSQYLTALLMSAPLALGDVEIEIVDKLISVPYVEMTLKLMERFGVSVEHSDSWDRFFVKGGQKYKSPGNAYVEGDASSASYFLAGAAITGETVTVEGCGTTSLQGDVKFAEVLEKMGCKVSWTENSVTVTGPPRDAFGMRHLRAIDVNMNKMPDVAMTLAVVALFADGPTTIRDVASWRVKETERMIAICTELRKLGATVEEGSDYCVITPPKKVKTAEIDTYDDHRMAMAFSLAACADVPITINDPGCTRKTFPDYFQVLERITKH	–	–	–	increase
wild type (WT): Arabidopsis thaliana EPSPS (At2g45300), unmutated, SEQ ID NO:9/10 (protein, listed as Arabidopsis thaliana) MAQVSRICNGVQNPSLISNLSKSSQRKSPLSVSLKTQQHPRAYPISSSWGLKKSGMTLIGSELRPLKVMSSVSTAEKASEIVLQPIREISGLIKLPGSKSLSNRILLLAALSEGTTVVDNLLNSDDINYMLDALKRLGLNVETDSENNRAVVEGCGGIFPASIDSKSDIELYLGNAGTAMRPLTAAVTAAGGNASYVLDGVPRMRERPIGDLVVGLKQLGADVECTLGTNCPPVRVNANGGLPGGKVKLSGSISSQYLTALLMSAPLALGDVEIEIVDKLISVPYVEMTLKLMERFGVSVEHSDSWDRFFVKGGQKYKSPGNAYVEGDASSASYFLAGAAITGETVTVEGCGTTSLQGDVKFAEVLEKMGCKVSWTENSVTVTGPPRDAFGMRHLRAIDVNMNKMPDVAMTLAVVALFADGPTTIRDVASWRVKETERMIAICTELRKLGATVEEGSDYCVITPPKKVKTAEIDTYDDHRMAMAFSLAACADVPITINDPGCTRKTFPDYFQVLERITKH	–	able to complement bacterial growth at later time points	–	–
N44D: A. thaliana EPSPS with Asparagine at position 44 changed into Aspartic Acid (SEQ ID NO:11) (protein, listed as Arabidopsis thaliana) MAQVSRICNGVQNPSLISNLSKSSQRKSPLSVSLKTQQHPRAYPISSSWGLKKSGMTLIGSELRPLKVMSSVSTAEKASEIVLQPIREISGLIKLPGSKSLSNRILLLAALSEGTTVVDDLLNSDDINYMLDALKRLGLNVETDSENNRAVVEGCGGIFPASIDSKSDIELYLGNAGTAMRPLTAAVTAAGGNASYVLDGVPRMRERPIGDLVVGLKQLGADVECTLGTNCPPVRVNANGGLPGGKVKLSGSISSQYLTALLMSAPLALGDVEIEIVDKLISVPYVEMTLKLMERFGVSVEHSDSWDRFFVKGGQKYKSPGNAYVEGDASSASYFLAGAAITGETVTVEGCGTTSLQGDVKFAEVLEKMGCKVSWTENSVTVTGPPRDAFGMRHLRAIDVNMNKMPDVAMTLAVVALFADGPTTIRDVASWRVKETERMIAICTELRKLGATVEEGSDYCVITPPKKVKTAEIDTYDDHRMAMAFSLAACADVPITINDPGCTRKTFPDYFQVLERITKH	lead to glyphosate resistance	some resistance to glyphosate; also recorded: provides tolerance to glyphosate	–	–
